The target in the test is Claudin 18.2 (UniProt P56856). In words: flow cytometry (FACS), cells not given.

The EC50 is the concentration that produces a half-maximal response. A high value points to lower potency in that assay.

B1: RGCLN18.2 antibody (antibody, human IgG1, kappa, V domains shown)
VH: QVQLVQSGAEVKKPGASVKVSCKASGYAFTNYLIEWVRQAPGQGLEWMGLINPGSGGTNYNEKFKGRVTMTRDTSTSTVYMELSSLRSEDTAVYYCARGGYYGNSFAYWGQGTLVTVSS
VL: DIVMTQSPLSLPVTPGEPASISCKSSQSLLNSGNQKNYLTWYLQKPGQSPQLLIYWASTRESGVPDRFSGSGSGTDFTLKISRVEAEDVGVYYCQNAYYYPYTFGGGTKVEIKR
In turn, B1 displayed an EC50 of 0.166 µg/mL.

The values are drawn from US20230272109A1.
